From US20210069342A1 (LEGOCHEM BIOSCIENCES, published 2021) come the findings set out here.

Assay [1] deals with T1, human ROR1 expressed on the cell surface (human, UniProt Q01973 30-937).
T1 construct: whole, on cells; also called cell surface-expressed ROR1 antigen; ROR1 on JeKo-1, Mino, CHO-human ROR1, MC38-human ROR1 and other cancer cell lines
The experiment in a line: flow cytometry on SNU-1750 cells (gastric cancer), C2E3 IgG, FITC anti-human Fc detection. The protocol:
(§1) FACS analysis (FACSCalibur, BD Biosciences) was used to analyze the binding of the anti-ROR1 antibody of the present invention to ROR1 in the above cell lines.
(§2) Specifically, the respective cell lines were dissociated and washed in PBS, then the numbers of cells were counted and adjusted to 2×10⁵ cells/200 PBS. Then, they were treated with 10 /mL of the antibody of clone name C2E3 of the ROR1 monoclonal antibodies prepared in Embodiment 3, and reacted for 1 hour at 4° C. After the reaction, the cells were washed in PBS, then FITC-marked constant region (Fc) specific antibody (Goat anti-human IgG FITC conjugate, Fc specific, Sigma, F9512, concentration 20 mg/ml) was suspended in 2 /1×10⁵ cells/200 PBS and reacted for 1 hour at 4° C. After reacting, the cells were washed with PBS and analyzed with the FACSCalibur equipment. The negative control was only treated with FITC-marked constant region (Fc) specific antibody. To compare the degree of ROR1 expression among the respective cancer cell lines, the quotient of dividing the shifted readings for the experimental group treated with the ROR1 monoclonal antibody (C2E3) of the present invention by the shifted readings for the control group (MFI Ratio: MFI of anti-ROR1/MFI or 2nd Ab) is indicated.
For orientation: Flow cytometry measures light scatter and fluorescence of single cells or particles in a stream.

Assay [2] concerns the target T1, human ROR1 expressed on the cell surface. The experiment in a line: flow cytometry on NCI-H1975 cells (lung cancer), C2E3 IgG, FITC anti-human Fc detection. The protocol: as §1, §2

T1 sequence (Q01973 30-937): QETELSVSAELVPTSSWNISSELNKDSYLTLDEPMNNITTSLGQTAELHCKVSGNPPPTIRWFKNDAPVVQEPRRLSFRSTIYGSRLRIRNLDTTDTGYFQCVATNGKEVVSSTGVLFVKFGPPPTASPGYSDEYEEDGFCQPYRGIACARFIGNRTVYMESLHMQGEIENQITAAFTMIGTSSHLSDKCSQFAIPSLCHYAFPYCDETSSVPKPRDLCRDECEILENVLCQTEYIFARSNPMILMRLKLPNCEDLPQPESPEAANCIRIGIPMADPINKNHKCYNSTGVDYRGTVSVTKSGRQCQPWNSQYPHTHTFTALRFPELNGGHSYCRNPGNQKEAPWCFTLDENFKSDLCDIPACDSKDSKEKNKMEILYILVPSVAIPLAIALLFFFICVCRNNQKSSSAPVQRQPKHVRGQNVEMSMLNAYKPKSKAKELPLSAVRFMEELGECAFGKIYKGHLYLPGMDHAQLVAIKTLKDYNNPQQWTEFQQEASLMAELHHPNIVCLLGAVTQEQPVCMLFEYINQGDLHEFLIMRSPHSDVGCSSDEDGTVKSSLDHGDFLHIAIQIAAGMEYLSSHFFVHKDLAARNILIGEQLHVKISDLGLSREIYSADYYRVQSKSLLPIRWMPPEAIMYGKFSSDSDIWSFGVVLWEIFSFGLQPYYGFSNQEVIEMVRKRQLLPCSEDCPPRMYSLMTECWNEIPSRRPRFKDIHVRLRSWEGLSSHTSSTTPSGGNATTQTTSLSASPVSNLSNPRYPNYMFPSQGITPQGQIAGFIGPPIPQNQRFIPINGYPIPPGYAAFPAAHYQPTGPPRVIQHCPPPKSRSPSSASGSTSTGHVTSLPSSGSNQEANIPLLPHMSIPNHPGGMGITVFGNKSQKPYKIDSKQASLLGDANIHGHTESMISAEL

B1: anti-ROR1 IgG antibody C2E3 (antibody, V domains shown)
VH: EVQLLESGGGLVQPGGSLRLSCAASGFTFSNYAMSWVRQAPGKGLEWVSSISHNSGSTYYADSVKGRFTISRDNSKNTLYLQMNSLRAEDTAVYYCAKFISARKSLGRSYSNGMDVWGQGTLVTVSS
VL: QSVLTQPPSASGTPGQRVTISCTGSSSNIGSNDVTWYQQLPGTAPKLLIYADSKRPSGVPDRFSGSKSGTSASLAISGLRSEDEADYYCGTWDYSLSGYVFGGGTKLTVLG
notes: Full IgG form (human IgG1 constant region, lambda light chain), expressed in CHO-S cells
With B1, the entries for the “Mean Fold Ratio (MFI of anti-ROR1 / MFI of 2nd Ab)” value in assay [1] and in assay [2] were 3.9 and 4.2, respectively.
